Results reported in patent US10253086B2, “CD20 therapies, CD22 therapies, and combination therapies with a CD19 chimeric antigen receptor (CAR)-expressing cell” (Novartis AG, priority 2015, dated 2019).

Key:
[1] = tested on: CD22; experiment: NFAT assay of CD22 CAR in JNL cells on antigen-coated plates; assay type: cell-based, human; settings: for function in NFAT assay: plates coated with CD22-FL-Fc, CD22-D567-Fc, CD22-D67
Description: Several CD22 CAR constructs were functionally validated in an NFAT assay. Briefly the experiments were performed as follows. A lentiviral vector (pELPS) carrying a nucleic acid, encoding a CD22 CAR with a CD22-binding scFv domain was introduced by electroporation into a Jurkat T cell line modified to express luciferase under the control of an NFAT response element (JNL). The cells were cultured and allowed to express the CAR construct. The electroporated cells were applied to a plate coated with the target antigen (CD22). Detection of luciferase signal in the coated plate was indicative of binding activity of the CD22 CAR to its antigen, leading to activation of the T cells and expression of luciferase.
The results also indicate that the different scFvs compete with m971 to different extents.
FIG. 72 is a graph showing the activation (in RLU) of several CD22 CAR-expressing JNL cells including CD22-57, CD22-58, CD22-59, CD22-60, CD22-61, CD22-62, and CD22-63, the scFv sequences of which are provided herein. Three different target proteins (CD22-FL-Fc, CD22-D567-Fc, and CD22-D67) were used to coat the tissue culture plates; a negative control (Fc) was also included. A mesothelin binding CAR (Meso-G07) was used as a negative control. CD22-12 and CD22-53 were used as positive controls. […] Domain mapping was performed on CD22 binding domains. Three different forms of antigens were used: CD22 full-length with all 7 external domains, Domain567 (in which domains 1-4 were deleted) and Domain67 (in which domains 1-5 were deleted). While not wishing to be bound by theory, it appears that the binding of various CD22 clones maps to the epitopes illustrated in FIG. 75.
Two scFvs, named CD22-64 and CD22-65, were produced by affinity maturation of hCD22-12. CAR constructs containing these scFvs were tested for activity in an NFAT assay as described above. […] The bars in the figure represent, from left to right, CD22 full length-Fc; CD22 D567-Fc; and an Fc only negative control used for coating of the plates.

[2] = molecular target: recombinant human CD22-Fc (Homo sapiens, UniProt P20273); experiment: Surface expression of CD22 CAR in primary human T-cells (Protein-L, rhCD22-Fc); assay type: cell-based; settings: day 10, flow cytometry
Description: Primary human T-cells were activated with anti-CD3/antiCD28 stimulatory beads on day 0, followed by lentiviral transduction of specified CAR constructs on day 1. Cells were expanded in vitro until day, 10 at which point they were analyzed by flow cytometry for surface expression of CAR. Two different approaches were utilized to determine surface expression of CAR: Protein-L-biotin followed by streptavidin-PE, and recombinant human CD22-Fc followed by anti-Fc-alexafluor 488. […] CD22 CAR m971 served as a positive control for binding both Protein-L and hrCD22-Fc, and Isotype CAR with no specificity (anti-gH) served as a positive control for Protein-L. T cells expressing no CAR were used as a negative control.

[3] = tested on: Raji, SEM, K562-hCD22, Daudi, and Nalm6; experiment: Primary T-cell tumor target killing assay; assay type: cell-based, human; settings: CD22 expressing luciferase target cell lines
From the text: Primary T-cells activated and transduced as described above were mixed with target cell lines stably expressing luciferase at the ratios indicated (FIG. 20A-20F). […] Untransduced T-cells (UTD) lacked the ability to kill target cell lines.

[4] = tested on: Raji-Luc and Daudi-Luc; experiment: IFN-gamma and IL-2 secretion by CD22 CAR primary T cells; assay type: cell-based, human; settings: E:T 10 to 1, 20-hr co-culture
Description: CD22 CAR constructs were also tested for the ability to promote secretion of IFN-gamma and IL-2. Briefly, transduced primary T cells from healthy donors expressing the different CD22 CARs were co-cultured with the CD22-positive target cells Raji-Luc and Daudi-Luc as well as the negative control K562-Luc. T cells and target cell were cultured in an effector-to-target cell ratio (E:T) of 10 to 1. Supernatants were harvested after 20-hr co-culture. […] Similar results were observed when Nalm6-Luc, Pfeiffer-Luc, and K562-CD22-Luc, and SEM-Luc cells were tested (data not shown). Minimal IFN-gamma secretion was observed when the K562-Luc negative control cell line was tested (bottom panel).

Row | surface expression of CAR [2] | Molecule | function in NFAT assay [1] | target cell killing [3] | other results
1 |  | CD22-57: human CD22 scFv SEQ ID NO 132 (protein, listed as Homo sapiens) scFv: EVQLQQSGPGLVKPSQTLSLTCAISGDSVSNNNAAWNWIRQSPSRGLEWLGRTYHRSTWYNDYVGSVKSRITINPDTSKNQFSLQLNSVTPEDTAVYYCARETDYGDYGAFDIWGQGTTVTVSSGGGGSGGGGSGGGGSQSALTQPASVSGSPGQSITISCTGSRNDIGAYESVSWYQQHPGNAPKLIIHGVNNRPSGVFDRFSVSQSGNTASLTISGLQAEDEADYYCSSHTTTSTLYVFGTGTKVTVLG | functional |  | 
2 | positive surface expression | hCD22-31: human CD22 CAR (protein) scFv: QVQLVQSGAEVKKPGASVKVSCKASGYTFTSYDINWVRQATGQGLEWMGWMNPNSGNTGYAQKFQGRVTMTRNTSISTAYMELSSLRSEDTAVYYCARGDSNYWSYYGMDVWGQGTLVTVSSGGGGSGGGGSGGGGSGGGGSQSVLTQPRSVSGSPGQSVTISCTGTSSDVGGYNYVSWYQQHPGEAPKLIIYDADKRPSGISNRFSSGKSGNTASLTISGLQVEDEADYYCCSYAGGSTWVFGGGTKVTVL |  | dose-dependent target cell killing | 
3 |  | CD22-53: human CD22 CAR, scFv SEQ ID NO 131 (protein) scFv: EVQLQQSGPGLVKPSQTLSLTCAISGDSVSSNSAAWNWIRQSPSRGLEWLGRTYYRSKWYSDYAVSVKSRITINPDTSKNQFSLQLNSVTPEDTAVYYCARDPYDFWSGYPDAFDIWGQGTMVTVSSGGGGSGGGGSGGGGSQSALTQPASVSGSPGQSITISCTGTSSDVGGYNYVSWYQQHPGKAPKVIISEVNNRPSGVSHRFSGSKSGNTASLTISGLQAEDEADYFCSSYTSGRTLYVFGTGSKVTVLG |  |  | antigen binding / activation (RLU) vs m971 ([1]; with and without m971 scFv competitor): bind the antigen approximately as well as the m971 positive control; IFN-gamma secretion [4]: induced IFN-gamma secretion; relative amount of IFN-gamma [4]: highest amounts
4 | positive surface expression | hCD22-2: human CD22 CAR (protein) scFv: EVQLQQSGPGLVKPSQTLSLTCAISGDSVSSNSAAWNWIRQSPSRGLEWLGRTYYRSKWYNDYAVSVKSRITINPDTSKNQFSLQLNSVTPEDTAVYYCARDLGWIAVAGTFDYWGQGTLVTVSSGGGGSGGGGSGGGGSQSALTQPASVSGSPGQSITISCTGTSSDVGGYNYVSWYQQHPGKAPKLMIYDVSKRPSGVSNRFSGSKSGNTASLTISGLQAEDEADYYCSSYTSSSLNHVFGTGTKVTVL |  | dose-dependent target cell killing | 
5 |  | CD22-60: human CD22 scFv SEQ ID NO 135 (protein, listed as Homo sapiens) scFv: EVQLQQSGPGLVKPSQTLSLTCAISGDSVLSNSDTWNWIRQSPSRGLEWLGRTYHRSTWYDDYASSVRGRVSINVDTSKNQYSLQLNAVTPEDTGVYYCARDRLQDGNSWSDAFDVWGQGTMVTVSSGGGGSGGGGSGSGGSQSALTQPASVSGSPGQSITFSCTGTSSDIGGYNYVSWYQQHPGKAPKLMIYEVSNRPSGVSNRFSGTKSGNTASLTISGLQAEDEADYYCSSYTSSSTLYVFGTGTKLTVLG | functional |  | 
6 |  | CD22-62: human CD22 scFv SEQ ID NO 137 (protein, listed as Homo sapiens) scFv: EVQLQQSGPGLVKPSQTLSLTCAISGDSVLSNSDTWNWIRQSPSRGLEWLGRTYHRSTWYDDYASSVRGRVSINVDTSKNQYSLQLNAVTPEDTGVYYCARDRLQDGNSWSDAFDVWGQGTMVTVSSGGGGSGGGGSGGGGSQSALTQPASVSGSPGQSITISCTGTSSDVGGYNYVSWYQQHPGKAPKLMIYDVSNRPSGVSNRFSGSKSGNTASLTISGLQAEDEADYYCSSYTSSSTLYVFGTGTKVTVLG | functional |  | 
7 |  | CD22-63: human CD22 scFv SEQ ID NO 138 (protein, listed as Homo sapiens) scFv: EVQLQQSGPGLVKPSQTLSLTCAISGDSVLSNSDTWNWIRQSPSRGLEWLGRTYHRSTWYDDYASSVRGRVSINVDTSKNQYSLQLNAVTPEDTGVYYCARDRLQDGNSWSDAFDVWGQGTMVTVSSGGGGSGGGGSGGGGSQSALTQPASVSGSPGQSITISCTGTSSDVGGYNYVSWYQQHPGKAPKLMIYEVSNRPSGVSNRFSGSKSGNTASLTISGLQAEDEADYYCSSYTSSSTLYIFGTGTKVTVLG | functional |  | 
8 |  | CD22-61: human CD22 scFv SEQ ID NO 136 (protein, listed as Homo sapiens) scFv: QVQLQESGPGLVKPSQTLSLTCAISGDSVLSNSDTWNWIRQSPSRGLEWLGRTYHRSTWYDDYASSVRGRVSINVDTSKNQYSLQLNAVTPEDTGVYYCARDRLQDGNSWSDAFDVWGQGTMVTVSSGGGGSGGGGSGSGGSQSALTQPASVSGSPGQSITISCTGTSSDVGGYNYVSWYQQHPGKAPKLMIYEVSNRPSGVSNRFSGSKSGNTASLTISGLQAEDEADYYCSSYTSSSTLYVFGTGTKVTVLG | functional |  | 
9 |  | CD22-59: human CD22 scFv SEQ ID NO 134 (protein, listed as Homo sapiens) scFv: EVQLQQSGPGLVKPSQTLSLTCAISGDSVLSNSDTWNWIRQSPSRGLEWLGRTYHRSTWYDDYASSVRGRVSINVDTSKNQYSLQLNAVTPEDTGVYYCARDRLQDGNSWSDAFDVWGQGTMVTVSSGGGGSGGGGSGGGGSQSALTQPASVSGSPGQSITISCTGSSSDIGGFNYVSWYQQHAGEAPKLMIYEVTNRPSGVSDRFSGSKSDNTASLTISGLQAEDEADYYCSSYASGSPLYVFGTGTKVTVLG | functional |  | 
10 | positive surface expression | hCD22-5: human CD22 CAR (protein) scFv: EVQLVESGGGLVQPGRSLRLSCAASGFTFDDYAMHWVRQAPGKGLEWVSGISWNSGSIGYADSVKGRFTISRDNAKNSLYLQMNSLRAEDTALYYCAKDKGGGYYDFWSGSDYWGQGTLVTVSSGGGGSGGGGSGGGGSSSELTQDPAVSVALGQTVRITCQGDSLRSYYASWYQQKPGQAPVLVIYGKNNRPSGIPDRFSGSSSGNTASLTITGAQAEDEADYYCNSRDSSGWVFGGGTKLTVL |  | dose-dependent target cell killing | 
11 | positive surface expression | hCD22-10: human CD22 CAR (protein) scFv: EVQLQQSGPGLVKPSQTLSLTCAISGDSVLSNSDTWNWIRQSPSRGLEWLGRTYHRSTWYDDYASSVRGRVSINVDTSKNQYSLQLNAVTPEDTGVYYCARDRLQDGNSWSDAFDVWGQGTMVTVSSGGGGSGGGGSGGGGSQSALTQPASVSGSPGQSITISCTGTSSDVGGYNYVSWYQQHPGKAPKLMIYDVSNRPSGVSNRFSGSKSGNTASLTISGLQAEDEADYYCSSYTSSSTLVYVFGTGTKVTVL |  | dose-dependent target cell killing | 
12 |  | CD22-58: human CD22 scFv SEQ ID NO 133 (protein, listed as Homo sapiens) scFv: EVQLQQSGPGLVNPSQTLSITCAISGDSVSSNSAAWNWIRQSPSRGLEWLGRTFYRSKWYNDYAVSVKGRITISPDTSKNQFSLQLNSVTPEDTAVYYCAGGDYYYGLDVWGQGTTVTVSSGGGGSGGGGSGGGGSQSALTQPASVSGSPGQSITISCTGSSSDVGGYNSVSWYQQHPGKAPKLMIYEVINRPSGVSHRFSGSKSGNTASLTISGLQAEDEADYYCSSYTSSSTYVFGTGTKVTVLG | functional |  | 
